The text below walks through data of patent US20260250410A1 (SICHUAN HUIYU PHARMACEUTICAL, published 2026).

What all share (assay): SPR (Caterra or Biacore), antigen immobilized
A general note: In SPR one partner is held on a chip, and binding of the other changes the refractive index at the surface.

One assay has as its target T1, HuCDCP1-A (human, UniProt Q9H5V8 30-430).
T1 construct: range 30-430; expressed in HEK-293T, purified by Fc/his tag; also called human CDCP1-A; membrane-distal region of CDCP1; not shown: Fc or his tag
T1 sequence (looked up): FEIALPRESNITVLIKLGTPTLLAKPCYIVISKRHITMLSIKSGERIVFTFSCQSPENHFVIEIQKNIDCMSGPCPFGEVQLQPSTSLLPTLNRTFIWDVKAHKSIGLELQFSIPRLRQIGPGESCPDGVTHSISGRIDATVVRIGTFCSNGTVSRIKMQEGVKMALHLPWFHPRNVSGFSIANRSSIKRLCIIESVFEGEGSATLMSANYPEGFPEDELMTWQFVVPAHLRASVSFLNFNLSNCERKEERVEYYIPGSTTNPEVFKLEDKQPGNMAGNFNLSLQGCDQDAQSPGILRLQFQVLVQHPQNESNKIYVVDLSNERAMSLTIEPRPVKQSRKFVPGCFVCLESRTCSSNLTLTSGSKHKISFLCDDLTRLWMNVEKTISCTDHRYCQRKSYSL

A further assay has as its target T2, HuCDCP1-C (human, UniProt Q9H5V8 30-667).
T2 construct: range 30-667; expressed in HEK-293T, purified by Fc/his tag; also called human CDCP1-C; full-length extracellular domain of human CDCP1; not shown: Fc or his tag
T2 sequence (looked up): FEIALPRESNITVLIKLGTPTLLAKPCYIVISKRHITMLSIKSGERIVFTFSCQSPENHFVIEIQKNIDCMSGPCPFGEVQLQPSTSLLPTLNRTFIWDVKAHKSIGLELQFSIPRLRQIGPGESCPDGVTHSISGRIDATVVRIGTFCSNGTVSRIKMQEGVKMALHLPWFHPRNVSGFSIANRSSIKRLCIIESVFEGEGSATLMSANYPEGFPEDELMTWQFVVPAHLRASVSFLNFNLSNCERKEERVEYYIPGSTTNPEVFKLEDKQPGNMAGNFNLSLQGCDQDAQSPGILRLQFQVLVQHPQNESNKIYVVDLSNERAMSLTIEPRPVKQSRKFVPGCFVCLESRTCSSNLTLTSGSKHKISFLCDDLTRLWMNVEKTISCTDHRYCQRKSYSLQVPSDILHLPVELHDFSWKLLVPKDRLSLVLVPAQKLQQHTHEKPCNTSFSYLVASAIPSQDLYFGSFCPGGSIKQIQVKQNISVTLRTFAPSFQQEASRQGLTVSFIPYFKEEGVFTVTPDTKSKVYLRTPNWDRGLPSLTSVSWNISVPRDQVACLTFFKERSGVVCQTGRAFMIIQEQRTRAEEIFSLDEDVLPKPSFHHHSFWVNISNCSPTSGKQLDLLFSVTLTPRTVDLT

Another assay deals with T3, CynoCDCP1 (Macaca fascicularis, UniProt A0A2K5VLA8 30-667).
T3 construct: extracellular domain; also called Macaca fascicularis CDCP1; monkey CDCP1; not shown: Fc or his tag
T3 sequence: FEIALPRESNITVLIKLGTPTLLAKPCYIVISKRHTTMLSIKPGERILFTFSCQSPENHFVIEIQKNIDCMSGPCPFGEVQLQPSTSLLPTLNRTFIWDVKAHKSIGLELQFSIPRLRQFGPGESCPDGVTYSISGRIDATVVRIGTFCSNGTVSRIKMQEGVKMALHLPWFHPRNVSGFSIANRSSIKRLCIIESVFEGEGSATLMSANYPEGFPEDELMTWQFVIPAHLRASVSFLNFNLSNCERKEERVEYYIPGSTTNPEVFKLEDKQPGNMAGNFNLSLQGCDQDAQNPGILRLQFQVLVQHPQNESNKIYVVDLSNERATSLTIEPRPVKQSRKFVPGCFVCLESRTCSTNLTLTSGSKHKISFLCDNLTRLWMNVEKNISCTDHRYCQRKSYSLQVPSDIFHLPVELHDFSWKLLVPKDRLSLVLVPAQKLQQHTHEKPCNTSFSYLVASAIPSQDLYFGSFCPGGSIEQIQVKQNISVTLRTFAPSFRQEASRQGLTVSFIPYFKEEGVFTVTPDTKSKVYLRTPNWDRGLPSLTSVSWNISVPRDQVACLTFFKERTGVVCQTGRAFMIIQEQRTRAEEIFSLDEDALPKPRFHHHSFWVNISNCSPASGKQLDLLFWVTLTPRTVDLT

A further assay addresses T4, RatCDCP1 (rat, UniProt D3ZVA1 29-666).
T4 construct: extracellular domain; not shown: Fc or his tag
T4 sequence: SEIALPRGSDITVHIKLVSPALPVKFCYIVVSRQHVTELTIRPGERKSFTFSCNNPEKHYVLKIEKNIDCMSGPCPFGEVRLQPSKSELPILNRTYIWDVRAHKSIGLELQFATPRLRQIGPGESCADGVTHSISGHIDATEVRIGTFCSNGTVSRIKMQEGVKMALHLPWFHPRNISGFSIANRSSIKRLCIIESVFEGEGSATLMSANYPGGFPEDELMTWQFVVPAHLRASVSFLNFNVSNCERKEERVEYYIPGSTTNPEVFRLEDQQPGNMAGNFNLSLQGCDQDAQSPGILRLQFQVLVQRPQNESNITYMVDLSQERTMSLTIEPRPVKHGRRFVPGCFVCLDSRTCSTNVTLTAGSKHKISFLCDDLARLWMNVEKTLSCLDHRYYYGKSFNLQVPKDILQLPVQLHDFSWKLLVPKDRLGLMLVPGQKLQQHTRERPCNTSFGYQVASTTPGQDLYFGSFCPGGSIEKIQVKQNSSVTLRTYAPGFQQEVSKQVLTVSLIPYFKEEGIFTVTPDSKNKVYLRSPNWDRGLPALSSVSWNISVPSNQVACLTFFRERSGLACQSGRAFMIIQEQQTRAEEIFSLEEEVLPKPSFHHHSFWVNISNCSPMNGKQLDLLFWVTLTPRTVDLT

B1: 10D2 (antibody, V domains shown)
VH: EVQLQQSGPELKKPGETVKISCKASGYTFTDYSMHWVKQAPGKGLKWMGWINTETGQPTYADDFKGRFAFSLETSASSAYLQINNLKNEDTATYFCTRTFYYDYVGDYWGQGTTVTVSS
VL: DIVMTQSHKFMSTSVGDRVSITCKASQDVSTAVAWYRQKPGQSPKLLIYWASTRHTGVPDRLTGSGSGTDFALTINSVQAEDLALYYCQQHSSTPYTFGGGTKLEIK
notes: murine hybridoma mAb
A word on the EC50: it is the concentration giving half of the maximal effect. High values mean a less potent agent, low ones a more potent agent. As for B1, the EC50 was 0.747 nM with HuCDCP1-A, 0.705 nM in the assay with HuCDCP1-C, 16.1 nM with CynoCDCP1 and 41.1 nM with RatCDCP1.
